Reference: publication PMC4734682, “Evidence for the Nucleo-Apical Shuttling of a Beta-Catenin Like Plasmodium falciparum Armadillo Repeat Containing Protein” (PLoS ONE, 2016)

What was measured:
[1] = molecular target: T1, rPfARO (Plasmodium falciparum 3D7) (UniProt C0H4A5); assay: competition; conditions: EMSA: 10 mM Tris-Cl pH 7.5, 100 mM KCl, 5 mM MgCl2, 2 mM DTT, 6% glycerol, 50 ug/ml BSA, 25 ul; temperature not stated
T1 sequence: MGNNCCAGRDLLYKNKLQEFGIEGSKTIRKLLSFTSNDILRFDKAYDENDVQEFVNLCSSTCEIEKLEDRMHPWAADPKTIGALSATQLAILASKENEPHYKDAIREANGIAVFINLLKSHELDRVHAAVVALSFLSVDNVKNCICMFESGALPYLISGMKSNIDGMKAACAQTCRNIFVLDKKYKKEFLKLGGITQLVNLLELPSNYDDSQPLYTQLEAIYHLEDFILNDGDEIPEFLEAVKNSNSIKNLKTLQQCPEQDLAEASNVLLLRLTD

[2] = molecular target: T1, rPfARO (Plasmodium falciparum 3D7); assay: EMSA; conditions: EMSA: 10 mM Tris-Cl pH 7.5, 100 mM KCl, 5 mM MgCl2, 2 mM DTT, 6% glycerol, 50 ug/ml BSA, 25 ul; temperature not stated
[3] = molecular target: the molecule itself; assay: non-reducing SDS-PAGE; purified rPfARO run under non-reducing conditions, stained gel and anti-His immunoblot; ~60 kDa dimer band beside the ~32 kDa monomer; dimer band diminished progressively with increasing DTT; both bands confirmed as PfARO by LC-MS
[4] = molecular target: the molecule itself; assay: non-reducing SDS-PAGE; immunoblot of parasite lysate under non-reducing conditions with anti-PfARO antibodies; ~60 kDa dimer beside the ~32 kDa monomer

Molecule: TTTTATATCATTTAATTCATATGTCTTTTCTTTCTTCTTCGCCTTCAGATCATAAGGATCTTGGACCTTTTTTCTTTCCTTCTTTTCAGAACACAAAGATGTACAACTAAAAGCATTGTCTGTATATGTTGAACGATTACTCTTGAAGGATCCCG (double strand) [AT-rich PfgyrA DNA]
- binding [1]: binds
- binding [2]: binds

B1: Recombinant PfARO (P. falciparum Armadillo Repeats Only protein), full length, C-terminal 6-His tag (natural protein, P. falciparum (strain 3D7), UniProt C0H4A5 1-275, looked up)
chain: T1 sequence
notes: PfARO, Plasmodium falciparum strain 3D7, PlasmoDB PF3D7_0414900; full length open reading frame of 275 amino acids amplified from 3D7 cDNA; putative NES at residues 198-204 (LVNLLEL); nine cysteines; Cloned NdeI/XhoI into pET-24b; also called rPfARO; ARM Repeats Only; source: E. coli BL21 (DE3) Codon+, purified (Ni-NTA, size exclusion chromatography on Superdex-200); not shown: His6, C-terminal, …
- stoichiometry N [3]: 2

B2: Native PfARO parasite protein (natural protein, UniProt C0H4A5 1-275, looked up)
chain: T1 sequence
notes: PfARO, Plasmodium falciparum strain 3D7, PlasmoDB PF3D7_0414900; native protein detected at ~32 kDa; source: endogenous, P. falciparum 3D7 schizont-stage parasite lysate (detergent based)
- stoichiometry N [4]: 2
